This is an account of results in patent publication US20260098088A1 (DISC MEDICINE, published 2026).

Assay in all cases: cell-based or functional assay
Assay [1] concerns the target T1, membrane-bound human RGMc (human, UniProt Q6ZVN8 36-400).
T1 sequence: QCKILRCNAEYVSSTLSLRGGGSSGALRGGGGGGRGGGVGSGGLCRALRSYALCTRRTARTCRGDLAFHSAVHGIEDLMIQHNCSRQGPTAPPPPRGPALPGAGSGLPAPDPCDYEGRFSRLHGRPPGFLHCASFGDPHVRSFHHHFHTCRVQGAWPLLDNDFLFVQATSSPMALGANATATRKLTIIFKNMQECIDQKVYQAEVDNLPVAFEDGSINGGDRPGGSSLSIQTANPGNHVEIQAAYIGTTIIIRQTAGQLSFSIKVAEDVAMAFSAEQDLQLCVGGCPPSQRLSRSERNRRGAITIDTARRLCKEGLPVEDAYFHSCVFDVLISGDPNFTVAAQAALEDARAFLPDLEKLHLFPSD

For assay [2], the target named is T1, membrane-bound human RGMc. The source holds these as a separate data set.
In assay [3] the target is T2, membrane-bound human RGMa (human, UniProt Q96B86 169-424).
T2 sequence (looked up): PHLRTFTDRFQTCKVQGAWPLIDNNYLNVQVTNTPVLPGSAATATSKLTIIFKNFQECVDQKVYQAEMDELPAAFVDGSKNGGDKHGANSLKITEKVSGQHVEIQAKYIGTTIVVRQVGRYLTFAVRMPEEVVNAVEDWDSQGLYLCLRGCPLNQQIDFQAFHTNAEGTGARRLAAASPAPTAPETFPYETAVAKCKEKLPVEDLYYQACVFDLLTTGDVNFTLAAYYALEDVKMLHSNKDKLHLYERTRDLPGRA

B1: hHA-008 (antibody, human IgG1, kappa, L234A L235A)
heavy: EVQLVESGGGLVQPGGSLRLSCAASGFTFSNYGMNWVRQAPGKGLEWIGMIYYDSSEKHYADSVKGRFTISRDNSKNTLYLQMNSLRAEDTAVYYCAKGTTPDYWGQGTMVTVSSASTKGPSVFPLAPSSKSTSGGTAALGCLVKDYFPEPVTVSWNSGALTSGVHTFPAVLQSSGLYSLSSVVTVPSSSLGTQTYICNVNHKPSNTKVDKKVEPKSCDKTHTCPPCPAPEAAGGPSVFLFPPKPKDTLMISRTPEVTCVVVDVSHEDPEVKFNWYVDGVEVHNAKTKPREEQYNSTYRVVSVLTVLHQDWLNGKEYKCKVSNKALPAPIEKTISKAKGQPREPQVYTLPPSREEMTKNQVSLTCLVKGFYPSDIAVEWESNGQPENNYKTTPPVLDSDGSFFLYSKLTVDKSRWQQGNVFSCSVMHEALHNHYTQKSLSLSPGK
light: DVVLTQSPLSLPVTLGQPASISCRSSQSLEESDGYTFLHWFQQRPGQSPRLLIYEVSTRFSGVPDRFSGSGSGTDFTLKISRVEAEDVGVYYCFQATHDPLTFGQGTKLEIKRTVAAPSVFIFPPSDEQLKSGTASVVCLLNNFYPREAKVQWKVDNALQSGNSQESVTEQDSKDSTYSLSSTLTLSKADYEKHKVYACEVTHQGLSSPVTKSFNRGEC
As to B1, in assay [1], the “IC50 (nM), BMP reporter assay for RGMc” value stood at 0.377 nM. In assay [2], the “Potency on membrane hRGMc (RGMc/BMP reporter assay) IC50” value worked out at 0.37 nM.

B2: hHA-011 (antibody, human IgG1, kappa, L234A L235A, V domains shown)
VH: EVQLVESGGGLVQPGGSLRLSCAASGFTFSNYGMNWVRQAPGKGLEWIGMIYYDSSEKHYADSVKGRFTISRDNSKNTLYLQMNSLRAEDTAVYYCAKGSTPDYWGQGTMVTVSS
VL: DVVLTQSPLSLPVTLGQPASISCRSSQSLEDSDGGTFLEWFQQRPGQSPRLLIYDVSSRFSGVPDRFSGSGSGTDFTLKISRVEAEDVGVYYCFQATHDPLSFGQGTKLEIKR
As for B2, in assay [1], the “IC50 (nM), BMP reporter assay for RGMc” value is 0.0554 nM. In assay [2], the “Potency on membrane hRGMc (RGMc/BMP reporter assay) IC50” value was found to be 0.52 nM. In addition, in assay [3], the “Potency on membrane hRGMa (RGMa/BMP reporter assay) IC50” value worked out at 1.7 nM.

B3: hHA-009 (antibody, human IgG1, kappa, L234A L235A, V domains shown)
VH: EVQLVESGGGLVQPGGSLRLSCAASGFTFSNYGMNWVRQAPGKGLEWIGMIYYDSSEKHYADSVKGRFTISRDNSKNTLYLQMNSLRAEDTAVYYCAKGTTPDYWGQGTMVTVSS
VL: DVVLTQSPLSLPVTLGQPASISCRSSQSLADSDGDTFLHWFQQRPGQSPRLLIYAVSHRFSGVPDRFSGSGSGTDFTLKISRVEAEDVGVYYCFQATHDPVTFGQGTKLEIKR
For B3, the “IC50 (nM), BMP reporter assay for RGMc” value in assay [1] came to 1.36 nM. Further, the “Potency on membrane hRGMc (RGMc/BMP reporter assay) IC50” value in assay [2] amounted to 1.36 nM.

B4: hHA-004 (antibody, human IgG1, kappa, L234A L235A, V domains shown)
VH: EVQLVESGGGLVQPGGSLRLSCAASGFTFSNYGMNWIRQAPGKGLEWIGMIYYDSSEKHYADSVKGRFTISRDNSKNTLYLQMNSLRAEDTAVYYCAKGTTPDYWGQGTMVTVSS
VL: DVVLTQSPLSLPVTLGQPASISCRSSQSLESSDGDTFLEWFQQRPGQSPRLLIYDVSTRFSGVPDRFSGSGSGTDFTLKISRVEAEDVGVYYCFQVTHDPVTFGQGTKLEIKR
Turning to B4, the “IC50 (nM), BMP reporter assay for RGMc” value in assay [1] is 0.312 nM. For the same molecule, the “Potency on membrane hRGMc (RGMc/BMP reporter assay) IC50” value in assay [2] came out at 0.31 nM. In assay [3], the “Potency on membrane hRGMa (RGMa/BMP reporter assay) IC50” value came to 2 nM.
